Data: patent US10501748B2, “Methods and compositions for integration of an exogenous sequence within the genome of plants” (Dow AgroSciences LLC, priority 2013, dated 2019)

Columns and labels:
[1] = test system: endogenous AHAS genes (three homoeologous copies); test: transient assay of ZFN-mediated NHEJ-directed AHAS editing in biolistically transfected scutella; type: cell-based, Triticum aestivum; conditions: for Editing Frequency (ppm): NHEJ, scutella; for molecular evidence for ZFN-mediated NHEJ-directed gene editing: samples of SEC protoplasts and scutella, with pDAB109350 (pDAS000149, pDAS000150 also pDAB109360)
Excerpt: (§1) The first type of donor design was a linear, double stranded DNA molecule comprising 41-bp of sequence that shared no homology with the endogenous AHAS genes in wheat. Two donor DNA molecules were designed, each to target the three homoeologous copies of the AHAS gene. Both donor DNA molecules had protruding 5′ and 3′ ends to provide ligation overhangs to facilitate ZFN-mediated NHEJ-directed DNA repair. The two donor DNA molecules differed by the sequence at their protruding 3′ end. The first donor DNA molecule, pDAS000152 (SEQ ID NO:74 and SEQ ID NO:75), was designed to provide ligation overhangs that were compatible with those generated by cleavage of the endogenous AHAS genes by ZFNs 29732 and 29730 (encoded on plasmid pDAB109350) and to result in the insertion of the 41-bp donor molecule into the endogenous AHAS gene at the site of the double strand DNA break via NHEJ-directed DNA repair. The second donor DNA molecule pDAS000149 (SEQ ID NO: 76 and SEQ ID NO:77) was designed to provide ligation overhangs that were compatible with those generated by the dual cleavage of the endogenous AHAS genes by ZFNs 29732 and 29730 (encoded on plasmid pDAB109350) and ZFNs 30012 and 30018 (encoded on plasmid pDAB109360) and to result in the replacement of the endogenous AHAS sequence contained between the two double strand DNA breaks created by the ZFNs with the 41-bp donor molecule via NHEJ-directed DNA repair.
(§2) The second type of donor was a plasmid DNA vector containing 41-bp of sequence that shared no homology with the endogenous AHAS genes in wheat and that was flanked on either side by sequence that was recognized by the ZFN(s) used to create double strand DNA breaks in the endogenous AHAS genes. This donor design allowed in planta release of the unique 41-bp sequence from the plasmid DNA molecule by the same ZFN(s) used to cleave target sites in the endogenous AHAS genes, and simultaneous generation of protruding ends that were suitable for overhang ligation of the released 41-bp sequence into the endogenous AHAS genes via NHEJ-directed DNA repair. Two plasmid donor DNA molecules were designed, each to target the three homoeologous copies of the AHAS gene. The first plasmid donor molecule, pDAS000153 (SED ID NO:78 and SEQ ID NO:79) (FIG. 8), was designed to provide ligation overhangs on the released 41-bp DNA fragment that were compatible with those generated by cleavage of the endogenous AHAS genes by ZFNs 29732 and 29730 (encoded on plasmid pDAB109350). The second plasmid donor molecule, pDAS000150 (SEQ ID NO:80 and SEQ ID NO:81) (FIG. 9), was designed to provide ligation overhangs on the released 41-bp DNA fragment that were at one end compatible with those generated by ZFNs 29732 and 29730 (encoded on plasmid pDAB109350) and at the other end compatible with those generated by ZFNs 30012 and 30018 (encoded on plasmid pDAB109360). This design allowed the replacement of the endogenous AHAS sequence contained between the two double strand DNA breaks created by ZFNs 29732 and 29730 and ZFNs 30012 and 30018 with the 41-bp donor molecule sequence.
(§3) Seedlings of the donor wheat line were grown in an environment controlled growth room maintained at 18/16° C. (day/night) and a 16/8 hour (day/night) photoperiod with lighting provided at […]. Wheat spikes were collected at 12-14 days post-anthesis and were surface sterilized by soaking for 1 min in 70% (v/v) ethanol. The spikes were threshed and the immature seeds were sterilized for 15 min in 17% (v/v) bleach with gentle shaking, followed by rinsing at least three times with sterile distilled water. The embryos were aseptically isolated from the immature seeds under a dissecting microscope. The embryonic axis was removed using a sharp scalpel and discarded. The scutella were placed into a 9 cm PETRI™ dish containing osmotic MS (E3 maltose) medium, with the uncut scutellum oriented upwards. A total of 20 scutella were plated onto each 9 cm PETRI™ dish. […]

[2] = test system: endogenous AHAS genes (three homoeologous copies); test: transient assay of ZFN-mediated NHEJ-directed AHAS editing in PEG-transfected SEC protoplasts; type: cell-based, Triticum aestivum; conditions: SEC protoplast
Excerpt: as §1, §2
as §3, with “2-4 medium without TIMENTIN™,” for “osmotic MS (E3 maltose) medium,”, “25” for “20”

[3] = wheat sub-genome A, ZFN 29732-2A-29730, ratio 5:1
[4] = wheat sub-genome A, ZFN 29732-2A-29730, ratio 10:1
[5] = wheat sub-genome A, ZFN n/a (donor only), average of three biological replicates
[6] = wheat sub-genome B, ZFN 29732-2A-29730, ratio 5:1
[7] = wheat sub-genome B, ZFN 29732-2A-29730, ratio 10:1
[8] = wheat sub-genome B, ZFN n/a (donor only)
[9] = wheat sub-genome D, ZFN 29732-2A-29730, ratio 5:1
[10] = wheat sub-genome D, ZFN 29732-2A-29730, ratio 10:1
[11] = wheat sub-genome D, ZFN n/a (donor only)
[12] = wheat sub-genome A, ZFN 29732-2A-29730, ratio 20:1
[13] = wheat sub-genome B, ZFN 29732-2A-29730, ratio 20:1
[14] = wheat sub-genome D, ZFN 29732-2A-29730, ratio 20:1

B1: pDAS000150: plasmid donor with 41-bp sequence flanked by sites for ZFNs 29732/29730 and 30012/30018; SEQ ID NO:80, 81 (nucleic acid)
chain 1: TGGATATCATAGTCCCGCATCAGGAGCACGTGCTGCCTATGATCCCAAGCGGTGGTGCTTTCAAGGACATGATCATGGGTTAGGTGCTGGTGGTCCGAAGGTCCACGCCGCCAACTACGGATGGCAGGACCTCGTACTGAAATTTCGACCTACAAGACCTACAAGTGTGACATGCGCAATCAGCATGATGCCCGCGT
chain 2: ACGCGGGCATCATGCTGATTGCGCATGTCACACTTGTAGGTCTTGTAGGTCGAAATTTCAGTACGAGGTCCTGCCATCCGTAGTTGGCGGCGTGGACCTTCGGACCACCAGCACCTAACCCATGATCATGTCCTTGAAAGCACCACCGCTTGGGATCATAGGCAGCACGTGCTCCTGATGCGGGACTATGATATCCA
modifications: pDAS000150
[1]; [3]
  Editing Frequency (ppm): 1 ppm
[1]; [4]
  Editing Frequency (ppm): 0 ppm
[1]; [5]
  Editing Frequency (ppm): 0 ppm
[1]; [6]
  Editing Frequency (ppm): 0 ppm
[1]; [7]
  Editing Frequency (ppm): 0 ppm
[1]; [8]
  Editing Frequency (ppm): 0 ppm
[1]; [9]
  Editing Frequency (ppm): 4 ppm
[1]; [10]
  Editing Frequency (ppm): 0 ppm
[1]; [11]
  Editing Frequency (ppm): 0 ppm
[1]
  molecular evidence for ZFN-mediated NHEJ-directed gene editing: Limited evidence
[2]; [3]
  Editing Frequency (ppm): 0 ppm
[2]; [4]
  Editing Frequency (ppm): 0 ppm
[2]; [12]
  Editing Frequency (ppm): 0 ppm
[2]; [5]
  Editing Frequency (ppm): 0 ppm
[2]; [6]
  Editing Frequency (ppm): 0 ppm
[2]; [7]
  Editing Frequency (ppm): 0 ppm
[2]; [13]
  Editing Frequency (ppm): 0 ppm
[2]; [8]
  Editing Frequency (ppm): 0 ppm
[2]; [9]
  Editing Frequency (ppm): 0 ppm
[2]; [10]
  Editing Frequency (ppm): 0 ppm
[2]; [14]
  Editing Frequency (ppm): 0 ppm
[2]; [11]
  Editing Frequency (ppm): 0 ppm

B2: pDAS000153: plasmid donor with 41-bp sequence flanked by ZFN 29732/29730 sites; SEQ ID NO:78, 79 (nucleic acid)
chain 1: TGGATATCATAGTCCCGCATCAGGAGCACGTGCTGCCTATGATCCCAAGCGGTGGTGCTTTCAAGGACATGATCATGGGTTAGGTGCTGGTGGTCCGAAGGTCCACGCCGCCAACTACGTGGATATCATAGTCCCGCATCAGGAGCACGTGCTGCCTATGATCCCAAGCGGTGGTGCTTTCAAGGACATGATCATGG
chain 2: CCATGATCATGTCCTTGAAAGCACCACCGCTTGGGATCATAGGCAGCACGTGCTCCTGATGCGGGACTATGATATCCACGTAGTTGGCGGCGTGGACCTTCGGACCACCAGCACCTAACCCATGATCATGTCCTTGAAAGCACCACCGCTTGGGATCATAGGCAGCACGTGCTCCTGATGCGGGACTATGATATCCA
modifications: pDAS000153
[1]; [3]
  Editing Frequency (ppm): 4 ppm
[1]; [4]
  Editing Frequency (ppm): 0 ppm
[1]; [5]
  Editing Frequency (ppm): 0 ppm
[1]; [6]
  Editing Frequency (ppm): 0 ppm
[1]; [7]
  Editing Frequency (ppm): 0 ppm
[1]; [8]
  Editing Frequency (ppm): 0 ppm
[1]; [9]
  Editing Frequency (ppm): 0 ppm
[1]; [10]
  Editing Frequency (ppm): 0 ppm
[1]; [11]
  Editing Frequency (ppm): 0 ppm
[1]
  molecular evidence for ZFN-mediated NHEJ-directed gene editing: poor evidence
[2]; [3]
  Editing Frequency (ppm): 0 ppm
[2]; [4]
  Editing Frequency (ppm): 0 ppm
[2]; [12]
  Editing Frequency (ppm): 0 ppm
[2]; [5]
  Editing Frequency (ppm): 0 ppm
[2]; [6]
  Editing Frequency (ppm): 0 ppm
[2]; [7]
  Editing Frequency (ppm): 0 ppm
[2]; [13]
  Editing Frequency (ppm): 0 ppm
[2]; [8]
  Editing Frequency (ppm): 0 ppm
[2]; [9]
  Editing Frequency (ppm): 0 ppm
[2]; [10]
  Editing Frequency (ppm): 0 ppm
[2]; [14]
  Editing Frequency (ppm): 0 ppm
[2]; [11]
  Editing Frequency (ppm): 0 ppm
